We go through two sequences from patent publication US20230212613.

Data set [1] relates to TRAC TALEN right monomer (artificial). The data set is described as follows: cell_activity. As to conditions: as TALEN pair with left monomer; primary human T cells, plateau by 72 h.
For data set [2], the system named is TRAC TALEN left monomer (artificial). In words: cell_activity. As to conditions: as TALEN pair with right monomer; primary human T cells, plateau by 72 h.

Consider “GGTACAGGTAAGAGCAA (double strand) [TRAC TALEN right half-site]”, for which, in data set [1], the activity worked out at 90 % indels. On to “TTCCTCCTACTCACCAT (double strand) [TRAC TALEN left half-site]”, for which the activity in data set [2] amounted to 90 % indels.
